± gives the standard deviation of the averaged measurements.

For one data set, the system named is hTERT-HMEC. As to the kind of experiment: percentage of EdU-negative (G0-arrested) nuclei per well, 72 h; higher = more G0 arrest. The following applies: reference: sequence is the full UniProt precursor, the tested protein was the secreted form or ectodomain.
Another data set has as its system MCF7. Described as above. The following applies: reference: sequence is the full UniProt precursor, the tested protein was the secreted form or ectodomain.
Where [1] appears, read: protein concentration 0.0225 µM.
[2] abbreviates: protein concentration 0.03125 µM.
Setting [3] is: protein concentration 0.3125 µM.
[4] abbreviates: protein concentration 0.00975 µM.
The mark [5] stands for this setting: protein concentration 0.0975 µM.
The mark [6] stands for this setting: protein concentration 0.0205 µM.
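Further: secreted proteins added to cultured cells, EdU pulse at the end, nuclei found by Hoechst imaging, EdU status from nuclear versus surrounding ring intensity ratio, PBS as neutral control.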

Consider “MPGGCSRGPAAGDGRLRLARLALVLLGWVSSSSPTSSASSFSSSAPFLASAVSAQPPLPDQCPALCECSEAARTVKCVNRNLTEVPTDLPAYVRNLFLTGNQLAVLPAGAFARRPPLAELAALNLSGSRLDEVRAGAFEHLPSLRQLDLSHNPLADLSPFAFSGSNASVSAPSPLVELILNHIVPPEDERQNRSFEGMVVAALLAGRALQGLRRLELASNHFLYLPRDVLAQLPSLRHLDLSNNSLVSLTYVSFRNLTHLESLHLEDNALKVLHNGTLAELQGLPHIRVFLDNNPWVCDCHMADMVTWLKETEVVQGKDRLTCAYPEKMRNRVLLELNSADLDCDPILPPSLQTSYVFLGIVLALIGAIFLLVLYLNRKGIKKWMHNIRDACRDHMEGYHYRYEINADPRLTNLSSNSDV”, for which the “percentage of EdU-negative” value with hTERT-HMEC (setting [1]) amounted to 4.65 ± 0.22%; in the data set with hTERT-HMEC (protein concentration 0.225 µM), 6.38 ± 0.11%; with MCF7 (setting [1]) it was 25.8 ± 1.4%; in the data set on MCF7 (protein concentration 0.225 µM) it was 27.9 ± 0.44%.
For “MPGGPGVLQALPATIFLLFLLSAVYLGPGCQALWMHKVPASLMVSLGEDAHFQCPHNSSNNANVTWWRVLHGNYTWPPEFLGPGEDPNGTLIIQNVNKSHGGIYVCRVQEGNESYQQSCGTYLRVRQPPPRPFLDMGEGTKNRIITAEGIILLFCAVVPGTLLLFRKRWQNEKLGLDAGDEYEDENLYEGLNLDDCSMYEDISRGLQGTYQDVGSLNIGDVQLEKP”, in that order: 5.39 ± 0.06%, 5.986 ± 0.025%, 25.3 ± 0.85% and 27 ± 1.2%.
“MPGIKRILTVTILALCLPSPGNAQAQCTNGFDLDRQSGQCLDIDECRTIPEACRGDMMCVNQNGGYLCIPRTNPVYRGPYSNPYSTPYSGPYPAAAPPLSAPNYPTISRPLICRFGYQMDESNQCVDVDECATDSHQCNPTQICINTEGGYTCSCTDGYWLLEGQCLDIDECRYGYCQQLCANVPGSYSCTCNPGFTLNEDGRSCQDVNECATENPCVQTCVNTYGSFICRCDPGYELEEDGVHCSDMDECSFSEFLCQHECVNQPGTYFCSCPPGYILLDDNRSCQDINECEHRNHTCNLQQTCYNLQGGFKCIDPIRCEEPYLRISDNRCMCPAENPGCRDQPFTILYRDMDVVSGRSVPADIFQMQATTRYPGAYYIFQIKSGNEGREFYMRQTGPISATLVMTRPIKGPREIQLDLEMITVNTVINFRGSSVIRLRIYVSQYPF [Q9UBX5]”: the “percentage of EdU-negative” value in the data set on hTERT-HMEC (setting [2]) came to 4.99 ± 0.79%; in the data set on hTERT-HMEC (setting [3]), 6.25 ± 1.1%; with MCF7 (setting [2]), 27.1 ± 1%; with MCF7 (setting [3]) it was 26.6 ± 2%.
“MPGLRRDRLLTLLLLGALLSADLYFHLWPQVQRQLRPRERPRGCPCTGRASSLARDSAAAASDPGTIVHNFSRTEPRTEPAGGSHSGSSSKLQALFAHPLYNVPEEPPLLGAEDSLLASQEALRYYRRKVARWNRRHKMYREQMNLTSLDPPLQLRLEASWVQFHLGINRHGLYSRSSPVVSKLLQDMRHFPTISADYSQDEKALLGACDCTQIVKPSGVHLKLVLRFSDFGKAMFKPMRQQRDEETPVDFFYFIDFQRHNAEIAAFHLDRILDFRRVPPTVGRIVNVTKEILEVTKNEILQSVFFVSPASNVCFFAKCPYMCKTEYAVCGNPHLLEGSLSAFLPSLNLAPRLSVPNPWIRSYTLAGKEEWEVNPLYCDTVKQIYPYNNSQRLLNVIDMAIFDFLIGNMDRHHYEMFTKFGDDGFLIHLDNARGFGRHSHDEISILSPLSQCCMIKKKTLLHLQLLAQADYRLSDVMRESLLEDQLSPVLTEPHLLALDRRLQTILRTVEGCIVAHGQQSVIVDGPVEQLAPDSGQANLTS [Q96MK3]”: the “percentage of EdU-negative” value with hTERT-HMEC (protein concentration 0.014 µM) worked out at 6.29 ± 0.36%; in the data set with hTERT-HMEC (protein concentration 0.14 µM), 27.9 ± 9.3%; with MCF7 (protein concentration 0.014 µM) it was 24 ± 3.4%; in the data set with MCF7 (protein concentration 0.14 µM), 30.6 ± 0.74%.
Regarding “MPGPRRPAGSRLRLLLLLLLPPLLLLLRGSHAGNLTVAVVLPLANTSYPWSWARVGPAVELALAQVKARPDLLPGWTVRTVLGSSENALGVCSDTAAPLAAVDLKWEHNPAVFLGPGCVYAAAPVGRFTAHWRVPLLTAGAPALGFGVKDEYALTTRAGPSYAKLGDFVAALHRRLGWERQALMLYAYRPGDEEHCFFLVEGLFMRVRDRLNITVDHLEFAEDDLSHYTRLLRTMPRKGRVIYICSSPDAFRTLMLLALEAGLCGEDYVFFHLDIFGQSLQGGQGPAPRRPWERGDGQDVSARQAFQAAKIITYKDPDNPEYLEFLKQLKHLAYEQFNFTMEDGLVNTIPASFHDGLLLYIQAVTETLAHGGTVTDGENITQRMWNRSFQGVTGYLKIDSSGDRETDFSLWDMDPENGAFRVVLNYNGTSQELVAVSGRKLNWPLGYPPPDIPKCGFDNEDPACNQDHLSTLEVLALVGSLSLLGILIVSFFIYRKMQLEKELASELWRVRWEDVEPSSLERHLRSAGSRLTLSGRGSNYGSLLTTEGQFQVFAKTAYYKGNLVAVKRVNRKRIELTRKVLFELKHMRDVQNEHLTRFVGACTDPPNICILTEYCPRGSLQDILENESITLDWMFRYSLTNDIVKGMLFLHNGAICSHGNLKSSNCVVDGRFVLKITDYGLESFRDLDPEQGHTVYAKKLWTAPELLRMASPPVRGSQAGDVYSFGIILQEIALRSGVFHVEGLDLSPKEIIERVTRGEQPPFRPSLALQSHLEELGLLMQRCWAEDPQERPPFQQIRLTLRKFNRENSSNILDNLLSRMEQYANNLEELVEERTQAYLEEKRKAEALLYQILPHSVAEQLKRGETVQAEAFDSVTIYFSDIVGFTALSAESTPMQVVTLLNDLYTCFDAVIDNFDVYKVETIGDAYMVVSGLPVRNGRLHACEVARMALALLDAVRSFRIRHRPQEQLRLRIGIHTGPVCAGVVGLKMPRYCLFGDTVNTASRMESNGEALKIHLSSETKAVLEEFGGFELELRGDVEMKGKGKVRTYWLLGERGSSTRG”, the “percentage of EdU-negative” value in the data set with hTERT-HMEC (setting [4]) came to 4.49 ± 0.51%; with hTERT-HMEC (setting [5]), 7.62 ± 0.42%; with MCF7 (setting [4]), 23.4 ± 0.38%; in the data set on MCF7 (setting [5]) it was 29.51 ± 0.041%.
Consider “MPGPRVWGKYLWRSPHSKGCPGAMWWLLLWGVLQACPTRGSVLLAQELPQQLTSPGYPEPYGKGQESSTDIKAPEGFAVRLVFQDFDLEPSQDCAGDSVTISFVGSDPSQFCGQQGSPLGRPPGQREFVSSGRSLRLTFRTQPSSENKTAHLHKGFLALYQTVAVNYSQPISEASRGSEAINAPGDNPAKVQNHCQEPYYQAAAAGALTCATPGTWKDRQDGEEVLQCMPVCGRPVTPIAQNQTTLGSSRAKLGNFPWQAFTSIHGRGGGALLGDRWILTAAHTIYPKDSVSLRKNQSVNVFLGHTAIDEMLKLGNHPVHRVVVHPDYRQNESHNFSGDIALLELQHSIPLGPNVLPVCLPDNETLYRSGLLGYVSGFGMEMGWLTTELKYSRLPVAPREACNAWLQKRQRPEVFSDNMFCVGDETQRHSVCQGDSGSVYVVWDNHAHHWVATGIVSWGIGCGEGYDFYTKVLSYVDWIKGVMNGKN [Q9NZP8]”, for which the “percentage of EdU-negative” value with hTERT-HMEC (setting [6]) came out at 6.35 ± 0.51%; in the data set on hTERT-HMEC (protein concentration 0.205 µM) it was 7.52 ± 1.6%; in the data set with MCF7 (setting [6]), 25.9 ± 0.29%; in the data set on MCF7 (protein concentration 0.205 µM), 26.4 ± 0.027%.

For the origin of these results see the supplement of paper PMC11316812.
